# Values quoted from earlier work as cited in patent US20110020368A1, “TREATING CANCER BY DOWN-REGULATING FRIZZLED-4 AND/OR FRIZZLED-1” (priority 2008, published 2011).
# Tested on: breast tumor cell lines
# Details: interference with autocrine WNT pathway activation
molecule,measurement,value
"sFRP1: extracellular inhibitor of WNT signaling, which competes with FZD receptors for ligand binding (protein, UniProt Q8N474 32-314, looked up) Secreted frizzled-related …: SEYDYVSFQSDIGPYQSGRFYTKPPQCVDIPADLRLCHNVGYKKMVLPNLLEHETMAEVKQQASSWVPLLNKNCHAGTQVFLCSLFAPVCLDRPIYPCRWLCEAVRDSCEPVMQFFGFYWPEMLKCDKFPEGDVCIAMTPPNATEASKPQGTTVCPPCDNELKSEAIIEHLCASEFALRMKIKEVKKENGDKKIVPKKKKPLKLGPIKKKDLKKLVLYLKNGADCPCHQLDNLSHHFLIMGRKVKSQYLLTAIHKWDKKNKEFKNFMKKMKNHECPTFQSVFK",Effect on proliferation of breast tumor cell lines,blocks proliferation
